The source of these data is patent US20250163140A1 (Kyowa Kirin, published 2025).

Where “and” joins values, the source holds several entries; their conditions need not be identical. Equal values may be shown once. Read-outs that look alike come from different tables or passages of the source.

In experiment [1] the target is T1, Recombinant Human FGF-23 (R&D Systems, Cat No. 2604-FG-025/CF) (human, UniProt Q9GZV9 25-251).
T1 construct: Bought protein
T1 sequence (looked up): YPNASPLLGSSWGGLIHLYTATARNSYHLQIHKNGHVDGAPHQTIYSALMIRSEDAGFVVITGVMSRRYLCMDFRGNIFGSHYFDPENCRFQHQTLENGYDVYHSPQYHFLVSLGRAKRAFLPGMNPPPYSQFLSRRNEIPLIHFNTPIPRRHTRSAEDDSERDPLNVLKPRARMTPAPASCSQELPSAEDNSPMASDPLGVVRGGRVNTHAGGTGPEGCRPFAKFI
In words: SPR, antibody captured on Protein A chip, FGF-23 analyte.

Experiment [2] concerns the target T1, Recombinant Human FGF-23 (R&D Systems, …). In words: cell-based or functional assay.
For experiment [3] the target is unchanged. In words: cell-based or functional assay. This is another data set of the same source.
The target of experiment [4] is T2, human FcRn (human FcRn-His tag with human β2 microglobulin) (human, UniProt P55899 24-297; P61769 21-119).
T2 construct: also called h FcRn; hFcRn
T2 sequence (P55899 other isoform, or with tags, fused parts or gaps limits assumed, chain 1 of 2): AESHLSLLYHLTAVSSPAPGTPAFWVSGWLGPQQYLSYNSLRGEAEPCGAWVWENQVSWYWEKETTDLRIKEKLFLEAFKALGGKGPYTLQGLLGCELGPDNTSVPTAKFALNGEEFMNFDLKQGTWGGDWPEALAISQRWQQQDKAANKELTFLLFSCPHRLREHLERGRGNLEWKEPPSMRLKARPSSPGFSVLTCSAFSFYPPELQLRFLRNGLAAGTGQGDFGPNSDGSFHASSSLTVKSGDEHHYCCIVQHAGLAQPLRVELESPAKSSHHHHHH
T2 sequence (P61769 21-119 limits assumed, chain 2 of 2): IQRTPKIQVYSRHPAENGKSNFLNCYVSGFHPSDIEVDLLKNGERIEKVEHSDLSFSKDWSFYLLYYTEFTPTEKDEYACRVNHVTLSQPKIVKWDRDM
In words: SPR pH 6, FcRn-His captured by anti-His, antibody analyte.

Experiment [5] addresses T1, Recombinant Human FGF-23 (R&D Systems, …). In words: SPR, antibody captured by anti-human IgG, FGF-23 analyte. For orientation: In SPR one partner is held on a chip, and binding of the other changes the refractive index at the surface.
The target is the same in experiment [6]. In words: cell-based or functional assay. The source holds these as a separate data set.
Experiment [7] has the same target. In words: SPR, antibody captured by anti-human IgG, FGF-23 analyte. This is another data set of the same source.
Experiment [8] shares this target. In words: SPR, antibody captured on Protein A chip, FGF-23 analyte. The source holds these as a separate data set.
Experiment [9] has the same target. In words: SPR, antibody captured by anti-human IgG, FGF-23 analyte. The source holds these as a separate data set.
Experiment [10] has the same target. In words: cell-based or functional assay. The source holds these as a separate data set.
The target is the same in experiment [11]. In words: cell-based or functional assay. The source holds these as a separate data set.
Experiment [12] has the same target. In words: SPR, antibody captured by anti-human IgG, FGF-23 analyte. This is another data set of the same source.
Experiment [13] shares this target. In words: SPR, antibody captured on Protein A chip, FGF-23 analyte. This is another data set of the same source.

B1: antibody A-10 (antibody, V domains shown)
VH: QVQLVQSGAEVKKPGASVKVSCKASGYTFTNHYMHWVRQAPGQGLEWMGIINPISGSTSNAQKFQGRVTMTRDTSTSTVYMELSSLRSEDTAVYYCARDYVDAFDFWGQGTMVTVSS
VL: AIQLTQSPSSLSASVGDRVTITCRASQGISSALVWYQQKPGKAPKLLIYDASSLESGVPSRFSGSGSGTDFTLTISSLQPEDFATYYCQQFYDDFDFGPGTKVDIK
notes: not shown: human kappa chain constant region
Consider B1, for which the Kd (as a rule, a measure of binding affinity in units of concentration) in experiment [1] was 0.0202 nM. In addition, the “FGF23 neutralizing activity, fold against antibody A” value in experiment [2] was 2 fold. Also, in experiment [3], the “FGF23 neutralizing activity IC50 (luciferase promoter assay)” value came to 1.5 ng/mL.

B2: antibody A_LS (antibody, human IgG1, name in EU numbering)
heavy: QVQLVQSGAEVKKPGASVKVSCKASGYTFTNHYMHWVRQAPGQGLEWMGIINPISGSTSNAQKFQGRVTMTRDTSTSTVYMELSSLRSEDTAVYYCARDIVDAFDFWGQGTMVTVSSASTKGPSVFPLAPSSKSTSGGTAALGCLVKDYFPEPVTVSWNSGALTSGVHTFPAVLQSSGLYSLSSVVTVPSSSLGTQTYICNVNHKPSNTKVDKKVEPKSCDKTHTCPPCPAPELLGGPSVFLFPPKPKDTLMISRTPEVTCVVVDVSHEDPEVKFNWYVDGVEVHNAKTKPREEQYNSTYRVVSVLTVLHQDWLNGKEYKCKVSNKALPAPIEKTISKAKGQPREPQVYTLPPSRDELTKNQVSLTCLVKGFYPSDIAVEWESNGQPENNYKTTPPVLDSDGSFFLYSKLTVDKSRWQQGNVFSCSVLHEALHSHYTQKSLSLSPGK
light: AIQLTQSPSSLSASVGDRVTITCRASQGISSALVWYQQKPGKAPKLLIYDASSLESGVPSRFSGSGSGTDFTLTISSLQPEDFATYYCQQFNDYFTFGPGTKVDIK
notes: positions are EU index; not shown: human kappa chain constant region; copies: 2 + 2
In experiment [4], B2 registered a Kd of 142 nM.

B3: antibody A (antibody, human IgG1)
heavy: not shown
light: AIQLTQSPSSLSASVGDRVTITCRASQGISSALVWYQQKPGKAPKLLIYDASSLESGVPSRFSGSGSGTDFTLTISSLQPEDFATYYCQQFNDYFTFGPGTKVDIK
notes: Human IgG1 antibody, kappa light chain; also called A_1; A_2; not shown: human kappa chain constant region
Turning to B3, the Kd in [5] was 0.00206 nM and 0.0026 nM and 0.00376 nM; in experiment [1], 0.0144 nM; in experiment [7], 0.00376 nM and 0.00415 nM; in experiment [8], 0.00877 nM; in experiment [9] it was 0.00451 nM; in experiment [12], 0.00993 nM. The “FGF23 neutralizing activity IC50 (luciferase promoter assay)” value in [6] stood at 1.2 ng/mL; in experiment [3], 3.2 ng/mL; in experiment [10], 1.4 ng/mL; in [11] it was 3.3 ng/mL. Further, in experiment [9], the kon – broadly, the rate constant with which the complex forms – turned out to be 9.12e+07 M⁻¹ s⁻¹. In addition, the “FGF23 neutralizing activity IC50 (luciferase promoter assay), antibody A in same measurement lot” value is 3.2 ng/mL and 2.8 ng/mL in experiment [3]; 3.1 ng/mL and 3.3 ng/mL in experiment [11].

B4: antibody A-9 (antibody, V domains shown)
VH: QVQLVQSGAEVKKPGASVKVSCKASGYTFTNHYMHWVRQAPGQGLEWMGIINPISGSTSNAQKFQGRVTMTRDTSTSTVYMELSSLRSEDTAVYYCARDAVDAFDFWGQGTMVTVSS
VL: AIQLTQSPSSLSASVGDRVTITCRASQGISSALVWYQQKPGKAPKLLIYDASSLESGVPSRFSGSGSGTDFTLTISSLQPEDFATYYCQQFWDDFDFGPGTKVDIK
notes: as for B1
For the molecule B4, the Kd in experiment [1] was 0.00687 nM. Also, the “FGF23 neutralizing activity, fold against antibody A” value in [2] was 3 fold. Further, the “fold antigen binding activity against antibody A” value in experiment [13] came out at 2 fold. For the same molecule, the “FGF23 neutralizing activity IC50 (luciferase promoter assay)” value in [3] was 1 ng/mL.

B5: antibody D105T (antibody, human IgG1, V domains shown)
VH: QVQLVQSGAEVKKPGASVKVSCKASGYTFTNHYMHWVRQAPGQGLEWMGIINPISGSTSNAQKFQGRVTMTRDTSTSTVYMELSSLRSEDTAVYYCARDIVDAFTFWGQGTMVTVSS
VL: AIQLTQSPSSLSASVGDRVTITCRASQGISSALVWYQQKPGKAPKLLIYDASSLESGVPSRFSGSGSGTDFTLTISSLQPEDFATYYCQQFNDYFTFGPGTKVDIK
notes: also called modified antibody D105
With B5, the “FGF23 neutralizing activity IC50 (luciferase promoter assay)” value in [10] is above 100 ng/mL. In experiment [12], the Kd worked out at 0.111 nM.

B6: antibody A_IgG4PE_R409K_LS (antibody)
heavy: QVQLVQSGAEVKKPGASVKVSCKASGYTFTNHYMHWVRQAPGQGLEWMGIINPISGSTSNAQKFQGRVTMTRDTSTSTVYMELSSLRSEDTAVYYCARDIVDAFDFWGQGTMVTVSSASTKGPSVFPLAPCSRSTSESTAALGCLVKDYFPEPVTVSWNSGALTSGVHTFPAVLQSSGLYSLSSVVTVPSSSLGTKTYTCNVDHKPSNTKVDKRVESKYGPPCPPCPAPEFEGGPSVFLFPPKPKDTLMISRTPEVTCVVVDVSQEDPEVQFNWYVDGVEVHNAKTKPREEQFNSTYRVVSVLTVLHQDWLNGKEYKCKVSNKGLPSSIEKTISKAKGQPREPQVYTLPPSQEEMTKNQVSLTCLVKGFYPSDIAVEWESNGQPENNYKTTPPVLDSDGSFFLYSKLTVDKSRWQEGNVFSCSVLHEALHSHYTQKSLSLSLGK
light: AIQLTQSPSSLSASVGDRVTITCRASQGISSALVWYQQKPGKAPKLLIYDASSLESGVPSRFSGSGSGTDFTLTISSLQPEDFATYYCQQFNDYFTFGPGTKVDIK
notes: not shown: human kappa chain constant region; copies: 2 + 2
For the molecule B6, in experiment [4], binding was put at a Kd of 116 nM.

B7: antibody I100V (antibody, human IgG1, V domains shown)
VH: QVQLVQSGAEVKKPGASVKVSCKASGYTFTNHYMHWVRQAPGQGLEWMGIINPISGSTSNAQKFQGRVTMTRDTSTSTVYMELSSLRSEDTAVYYCARDVVDAFDFWGQGTMVTVSS
VL: AIQLTQSPSSLSASVGDRVTITCRASQGISSALVWYQQKPGKAPKLLIYDASSLESGVPSRFSGSGSGTDFTLTISSLQPEDFATYYCQQFNDYFTFGPGTKVDIK
notes: also called modified antibody I100
Turning to B7, the Kd in experiment [9] is 0.00473 nM.

B8: antibody D105A (antibody, human IgG1, V domains shown)
VH: QVQLVQSGAEVKKPGASVKVSCKASGYTFTNHYMHWVRQAPGQGLEWMGIINPISGSTSNAQKFQGRVTMTRDTSTSTVYMELSSLRSEDTAVYYCARDIVDAFAFWGQGTMVTVSS
VL: AIQLTQSPSSLSASVGDRVTITCRASQGISSALVWYQQKPGKAPKLLIYDASSLESGVPSRFSGSGSGTDFTLTISSLQPEDFATYYCQQFNDYFTFGPGTKVDIK
notes: as for B5
For the molecule B8, the “FGF23 neutralizing activity IC50 (luciferase promoter assay)” value in [10] was above 100 ng/mL. Moreover, the Kd in experiment [12] worked out at 0.108 nM.

B9: antibody I100L (antibody, human IgG1, V domains shown)
VH: QVQLVQSGAEVKKPGASVKVSCKASGYTFTNHYMHWVRQAPGQGLEWMGIINPISGSTSNAQKFQGRVTMTRDTSTSTVYMELSSLRSEDTAVYYCARDLVDAFDFWGQGTMVTVSS
VL: AIQLTQSPSSLSASVGDRVTITCRASQGISSALVWYQQKPGKAPKLLIYDASSLESGVPSRFSGSGSGTDFTLTISSLQPEDFATYYCQQFNDYFTFGPGTKVDIK
notes: as for B7
Consider B9, for which, in experiment [9], the Kd is 0.0126 nM.

B10: antibody I100A (antibody, human IgG1, V domains shown)
VH: QVQLVQSGAEVKKPGASVKVSCKASGYTFTNHYMHWVRQAPGQGLEWMGIINPISGSTSNAQKFQGRVTMTRDTSTSTVYMELSSLRSEDTAVYYCARDAVDAFDFWGQGTMVTVSS
VL: AIQLTQSPSSLSASVGDRVTITCRASQGISSALVWYQQKPGKAPKLLIYDASSLESGVPSRFSGSGSGTDFTLTISSLQPEDFATYYCQQFNDYFTFGPGTKVDIK
notes: as for B7
Regarding B10, the Kd came to 0.0251 nM in experiment [5], 0.0289 nM in experiment [7] and 0.014 nM in experiment [9]. For the same molecule, the “FGF23 neutralizing activity IC50 (luciferase promoter assay)” value in experiment [10] was determined as 5.1 ng/mL.

B11: antibody A_G2_LS (antibody)
heavy: QVQLVQSGAEVKKPGASVKVSCKASGYTFTNHYMHWVRQAPGQGLEWMGIINPISGSTSNAQKFQGRVTMTRDTSTSTVYMELSSLRSEDTAVYYCARDIVDAFDFWGQGTMVTVSSASTKGPSVFPLAPCSRSTSESTAALGCLVKDYFPEPVTVSWNSGALTSGVHTFPAVLQSSGLYSLSSVVTVPSSNFGTQTYTCNVDHKPSNTKVDKTVERKCCVECPPCPAPPVAGPSVFLFPPKPKDTLMISRTPEVTCVVVDVSHEDPEVQFNWYVDGVEVHNAKTKPREEQFNSTFRVVSVLTVVHQDWLNGKEYKCKVSNKGLPAPIEKTISKTKGQPREPQVYTLPPSREEMTKNQVSLTCLVKGFYPSDIAVEWESNGQPENNYKTTPPMLDSDGSFFLYSKLTVDKSRWQQGNVFSCSVLHEALHSHYTQKSLSLSPGK
light: AIQLTQSPSSLSASVGDRVTITCRASQGISSALVWYQQKPGKAPKLLIYDASSLESGVPSRFSGSGSGTDFTLTISSLQPEDFATYYCQQFNDYFTFGPGTKVDIK
notes: as for B6
On to B11, for which the Kd in [4] was determined as 310 nM.
